Test system: T1, OhsR-SSM (S-mycothiolated OhsR) (Corynebacterium glutamicum), ORF:a3d30e29
T1 sequence: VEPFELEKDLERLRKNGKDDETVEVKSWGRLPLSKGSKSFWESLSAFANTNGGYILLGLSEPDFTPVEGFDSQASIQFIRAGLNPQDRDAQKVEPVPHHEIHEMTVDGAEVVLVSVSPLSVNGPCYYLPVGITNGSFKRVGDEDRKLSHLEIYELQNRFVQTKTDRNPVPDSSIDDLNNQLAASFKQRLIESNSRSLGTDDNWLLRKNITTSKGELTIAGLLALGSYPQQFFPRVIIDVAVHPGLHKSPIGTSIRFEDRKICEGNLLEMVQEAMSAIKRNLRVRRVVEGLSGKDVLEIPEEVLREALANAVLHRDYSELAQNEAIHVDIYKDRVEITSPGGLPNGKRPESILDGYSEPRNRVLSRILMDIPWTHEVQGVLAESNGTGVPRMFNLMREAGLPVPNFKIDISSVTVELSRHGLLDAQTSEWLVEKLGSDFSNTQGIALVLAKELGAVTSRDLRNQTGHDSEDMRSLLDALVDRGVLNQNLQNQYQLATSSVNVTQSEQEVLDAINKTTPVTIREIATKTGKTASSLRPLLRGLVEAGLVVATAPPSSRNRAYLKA
Assay: EMSA
Settings: EMSA: 20 mM Tris-HCl pH 7.4, 4 mM MgCl2, 100 mM NaCl, 10% glycerol, room temperature 30 min; 20 ng DNA, 0-4 ug OhsR; 6% native PAGE, 0.5x TBE, SYBR Green

Question: With “CACCTTGTTGGTGGGCCGGGATTTTTGTTGTTTAGATTTTTGAAAGCACACTTTTGTCCCTTAACTAGTGCGTGTGTACATTCGACACCAAGATTTGGGCAATATGGTGCCCAAAATCAGGAAATCTTGCTGTCTAATGCACAACGGAAAACTGCTCACGGACGAACTAGTTGTAGCGAGCGTATTCTTTGTGTTCTCTC (double strand) [Pohr (ohr promoter, 200 bp)]” as the sequence, how does the binding read?
Answer: The binding was “binds”.

— paper PMC6306002
